Assay results: patent US20210253716A1 (Regeneron, published 2021)
Numbering of substitutions follows the chain as printed. Values belong to the binder of their own block, whether it stands above or below them.

How the values were obtained:
[1] = target: T1, mouse ACVR1 extracellular domain expressed with a C-terminal myc-myc-hexahistidine tag (mouse); test: SPR (Biacore), mAb captured, 25 C
T1 construct: also called mACVR1-MMH; mACVR1-mmh
T1 chain: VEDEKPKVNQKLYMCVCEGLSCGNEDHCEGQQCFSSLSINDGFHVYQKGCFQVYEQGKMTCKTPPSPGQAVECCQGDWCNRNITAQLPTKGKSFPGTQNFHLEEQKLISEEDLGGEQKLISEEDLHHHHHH
Procedure: (§1) Equilibrium dissociation constants (KD) for ACVR1 binding to purified anti-ACVR1 monoclonal antibodies were determined using a real-time surface plasmon resonance biosensor (SPR-Biacore), Biacore 4000. All binding studies were performed in 10 mM HEPES, 150 mM NaCl, 3 mM EDTA, and 0.05% v/v surfactant Tween-20, pH 7.4 (HBS-ET) running buffer at 25° C. and 37° C. The Biacore CM5 sensor surface was first derivatized by amine coupling with a monoclonal mouse anti-human Fc antibody (GE, #BR-1008-39 or REGN2567) to capture anti-ACVR1 monoclonal antibodies. […] ACVR1 reagents were then injected over anti-human Fc captured anti-ACVR1 monoclonal antibody surface for 2.5-3 minutes at a flow rate of 30 μL/minute, while the dissociation of monoclonal antibody bound ACVR1 reagent was monitored for 10-15 minutes in HBS-ET running buffer. Kinetic association rate constant (kₐ) and dissociation rate constant (kd) were determined by fitting the real-time sensorgrams to a 1:1 binding model using Scrubber 2.0c curve-fitting software. Binding dissociation equilibrium constants (KD) and dissociative half-lives (t½) were calculated from the kinetic rate constants as: […]

[2] = target: T2, human ACVR1 extracellular domain expressed with a C-terminal myc-myc-hexahistidine tag (human); test: SPR (Biacore), mAb captured, 25 C
T2 construct: also called hACVR1-MMH
T2 chain: T1 chain with V1M, Q10P
Procedure: as §1

[3] = target: T3, human ACVR1 extracellular domain expressed with a C-terminal mouse IgG2a Fc tag (human); test: SPR (Biacore), mAb captured, 25 C
T3 construct: also called hACVR1-mFc
T3 chain: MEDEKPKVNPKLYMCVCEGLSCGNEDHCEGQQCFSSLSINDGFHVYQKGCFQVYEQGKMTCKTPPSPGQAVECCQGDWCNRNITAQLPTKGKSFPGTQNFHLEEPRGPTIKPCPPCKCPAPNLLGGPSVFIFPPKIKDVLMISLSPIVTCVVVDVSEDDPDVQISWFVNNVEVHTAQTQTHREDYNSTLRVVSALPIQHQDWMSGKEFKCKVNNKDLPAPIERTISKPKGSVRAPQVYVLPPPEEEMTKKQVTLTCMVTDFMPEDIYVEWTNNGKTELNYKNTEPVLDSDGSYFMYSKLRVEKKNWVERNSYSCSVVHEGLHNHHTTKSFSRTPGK
Procedure: as §1

[4] = target: T4, full length human ACVR1 (R206H) on HEK293/BRE-luc/hACVR1-R206H-clone H2 cells (human, UniProt Q04771 21-509); test: flow cytometry, 70 nM antibody, HEK293/hACVR1-R206H cells
T4 construct: also called HEK293/hACVR1-R206H
T4 sequence: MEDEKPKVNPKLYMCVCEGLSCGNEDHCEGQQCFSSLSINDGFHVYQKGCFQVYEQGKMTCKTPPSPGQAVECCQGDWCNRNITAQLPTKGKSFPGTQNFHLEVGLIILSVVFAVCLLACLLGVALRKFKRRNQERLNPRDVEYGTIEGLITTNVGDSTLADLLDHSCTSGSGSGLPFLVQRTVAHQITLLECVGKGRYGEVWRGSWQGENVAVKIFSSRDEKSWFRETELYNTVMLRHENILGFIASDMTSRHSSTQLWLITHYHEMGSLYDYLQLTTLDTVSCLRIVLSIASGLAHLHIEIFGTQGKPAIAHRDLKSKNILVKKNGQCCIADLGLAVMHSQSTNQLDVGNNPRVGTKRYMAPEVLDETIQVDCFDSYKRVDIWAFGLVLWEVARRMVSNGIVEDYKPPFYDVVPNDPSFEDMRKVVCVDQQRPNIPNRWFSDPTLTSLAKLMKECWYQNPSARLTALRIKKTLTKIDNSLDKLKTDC
Procedure: Cells were fixed using BD CytoFix™ (Becton Dickinson, #554655) and analyzed on either Hypercyt® or IQue® Flow Cytometers (Intellicyt®). Unstained and secondary antibody alone controls were also tested for all cell lines. The results were analyzed using ForeCyt® (IntelliCyt®) software to determine the geometric means of fluorescence for viable cells and binding ratios were calculated by normalizing the geometric mean value of the test condition by the geometric mean value of the corresponding unstained cells.

[5] = target: T4, full length human ACVR1 (R206H) on …; test: cell-based or functional assay
[6] = target: T1, mouse ACVR1 extracellular domain …; test: SPR (Biacore), mAb captured, 37 C
Procedure: as §1

[7] = target: T2, human ACVR1 extracellular domain …; test: SPR (Biacore), mAb captured, 37 C
Procedure: as §1

[8] = target: T3, human ACVR1 extracellular domain …; test: SPR (Biacore), mAb captured, 37 C
Procedure: as §1

900 nM or 100 nM Ag Bound (RU) [1]: -2 RU | 900 nM or 100 nM Ag Bound (RU) [2]: 47 RU | Kd [2]: 8.43 nM | koff [2]: 0.000521 s⁻¹ | kon [2]: 61800 M⁻¹ s⁻¹ | t½ [2]: 22 min | 100 nM Ag Bound (RU) [3]: 157 RU | Kd [3]: 0.936 nM | koff [3]: 0.000121 s⁻¹ | kon [3]: 129000 M⁻¹ s⁻¹ | t½ [3]: 95 min | MFI - Normalized to Unstained Control [4]: 1660 fold | % Inhibition, BRE-luc reporter, 2 nM hBMP7 [5]: 62% | IC50 [M], BRE-luc reporter, 2 nM hBMP7 [5]: 1.4e-10 M | 900 nM or 100 nM Ag Bound (RU) [6]: 2 RU | 900 nM or 100 nM Ag Bound (RU) [7]: 64 RU | Kd [7]: 21.4 nM | koff [7]: 0.00326 s⁻¹ | kon [7]: 153000 M⁻¹ s⁻¹ | t½ [7]: 3.5 min | 100 nM Ag Bound (RU) [8]: 201 RU | Kd [8]: 1.58 nM | koff [8]: 0.000495 s⁻¹ | kon [8]: 314000 M⁻¹ s⁻¹ | t½ [8]: 23 min
B1: mAb29257 (antibody, human IgG4 S228P, kappa, V domains shown)
VH: EVQLVESGGNLVQPGGSLRLSCAASGFTFSNYAMSWVRQAPGKGLEWVSGITGNGIKTYYSVSAKGRFTISRDNSKNTLFLQMNSLRAEDTAIYYCVKERGHSWFGDWFDPWGQGTLVTVSS
VL: DIVMTQTPLSSPVTLGQPASISCRSSQGLVNSDGNTYLSWLHQRPGQPPRLLIYEISNRFSGVPDRFSGSGAGTDFTLKISRVEAEDVGFYYCMQSTQFPLTFGGGTKVEIKR

900 nM or 100 nM Ag Bound (RU) [1]: 1 RU | binding result [1]: no binding (tested: 900 nM or 100 nM) | 900 nM or 100 nM Ag Bound (RU) [2]: 35 RU | Kd [2]: 8.01 nM | koff [2]: 0.000207 s⁻¹ | kon [2]: 25800 M⁻¹ s⁻¹ | t½ [2]: 56 min | 100 nM Ag Bound (RU) [3]: 145 RU | Kd [3]: 1.34 nM | koff [3]: 5.06e-05 s⁻¹ | kon [3]: 38100 M⁻¹ s⁻¹ | t½ [3]: 228 min | MFI - Normalized to Unstained Control [4]: 1660 fold | % Inhibition, BRE-luc reporter, 2 nM hBMP7 [5]: 110% | IC50 [M], BRE-luc reporter, 2 nM hBMP7 [5]: 1.5e-09 M | 900 nM or 100 nM Ag Bound (RU) [6]: 2 RU | 900 nM or 100 nM Ag Bound (RU) [7]: 66 RU | Kd [7]: 32.2 nM | koff [7]: 0.00173 s⁻¹ | kon [7]: 53900 M⁻¹ s⁻¹ | t½ [7]: 7 min | 100 nM Ag Bound (RU) [8]: 222 RU | Kd [8]: 3.65 nM | koff [8]: 0.000335 s⁻¹ | kon [8]: 91700 M⁻¹ s⁻¹ | t½ [8]: 34 min
B2: mAb27245 (antibody, human IgG4 S228P, kappa, V domains shown)
VH: QVQLQQWGAGLLKPSETLSLTCAVYNGSFSSYYWNWIRQPPGKGLEWLGEINHRGSTNYNPSLTSRVTISVDTSKNQFSLKLTSVTAADTAIYYCTAHTRGFLYWGQGTLVTVSS
VL: DIQMTQSPSSLSASVGDRVTITCQASQDINNYLNWYQQKPGKAPKLLIYDASNLVPGVPSRFSGTGSGTDFSFTISSLQPEDIATYYCQHYYDLPLTFGGGTTVAIRR

900 nM or 100 nM Ag Bound (RU) [1]: 1 RU | binding result [1]: no binding (tested: 900 nM or 100 nM) | 900 nM or 100 nM Ag Bound (RU) [2]: 34 RU | Kd [2]: 6.52 nM | koff [2]: 0.000123 s⁻¹ | kon [2]: 18900 M⁻¹ s⁻¹ | t½ [2]: 94 min | 100 nM Ag Bound (RU) [3]: 135 RU | Kd [3]: 0.918 nM | koff [3]: 3.2e-05 s⁻¹ | kon [3]: 34900 M⁻¹ s⁻¹ | t½ [3]: 361 min | MFI - Normalized to Unstained Control [4]: 1160 fold | % Inhibition, BRE-luc reporter, 2 nM hBMP7 [5]: 110% | IC50 [M], BRE-luc reporter, 2 nM hBMP7 [5]: 1.8e-09 M | 900 nM or 100 nM Ag Bound (RU) [6]: 2 RU | 900 nM or 100 nM Ag Bound (RU) [7]: 66 RU | Kd [7]: 19.7 nM | koff [7]: 0.000852 s⁻¹ | kon [7]: 43200 M⁻¹ s⁻¹ | t½ [7]: 14 min | 100 nM Ag Bound (RU) [8]: 216 RU | Kd [8]: 2.44 nM | koff [8]: 0.000201 s⁻¹ | kon [8]: 82200 M⁻¹ s⁻¹ | t½ [8]: 57 min
B3: mAb27241 (antibody, human IgG4 S228P, kappa, V domains shown)
VH: B2 VH
VL: B2 VL with N31I, K39Q, A51V, D70H, Y92D
